{"source": "patent US8287851B2", "about": "“Use of interleukin 17E for the treatment of cancer” (Lorus Therapeutics Inc., priority 2005, dated 2012)", "key": {"[1]": {"test_system": "IkappaB alpha (NF-kappaB pathway)", "assay": "NF-kappaB pathway activation: IkappaB alpha phosphorylation in WEHI-231 cells", "format": "cell-based", "conditions": "0.7 μg per 5×10^6 WEHI-231 cells, 0, 2, 5 minutes", "description": "The ability of both human and murine interleukin 17E to activate proteins in the Nuclear Factor-kappa B (NF-kappaB) pathway was examined using the B cell lymphoma cell line WEHI-231. […] Activation of the NK-kappaB pathway was assessed by increased phosphorylation of the protein IkappaB alpha. […] The activation of NF-kappa B is associated with the phosphorylation of IkappaB alpha in response to certain stimuli.\nA total 5×10^6 cells per sample were stimulated with 0.7 μg of either human IL-17E (hIL-17E) or murine IL-17E (mIL-17E) at 37° C. Cells were lysed at time points t=0, 2, and 5 minutes in lysis buffer for 30 minutes on ice, followed by centrifugation for 10 minutes. Samples containing approximately 40 μg of protein were separated by SDS-PAGE, followed by transfer to membranes for Western blotting.\nBlots were incubated with rabbit anti-phospho-IkappaB-alpha antibodies, followed by horesradish peroxidase (HRP)-conjugated anti-rabbit antibodies. Blots were exposed to autoradiography film and developed to detect phosphorylated IkB (at approximately 41 kD) by chemiluminescence.\nTo assess equivalence in protein loading among lanes in both experiments, blots were stripped of antibodies and incubated with mouse anti-GAPDH antibodies and HRP-conjugated anti-mouse antibodies, followed by chemiluminescence-based detection."}, "[2]": {"test_system": "human melanoma C8161 xenograft", "assay": "Antitumour activity in murine xenograft model of human melanoma C8161", "format": "in vivo, CD-1 athymic nude mice", "description": "Human melanoma cell line C8161 was grown in RPMI 1640 medium (Wisent Inc., St. Bruno, QC) with 10% fetal bovine serum, penicillin (100 U/ml), streptomycin ([…]) (Wisent Inc.) at 37° C. under 95% air and 5% CO2, and maintained with routine media changes. Adherent C8161 cells were passaged by trypsinization with 0.025% trypsin. CD-1 athymic nude mice and C57BL/6 (6-8 weeks old, 20-25 g, female) were purchased from Charles River (Montreal, QC).\nHuman tumour xenografts were established in mice. Briefly, human tumour cells were harvested at approximately 80% confluence in cell culture medium and resuspended in sterile PBS. Ten million tumour cells in 100 μl were subcutaneously implanted into the right flank of CD-1 athymic nude mice. When tumours reached a volume of 50-100 mm^3, mice were randomly separated into two groups of 10 animals and treated with BD-BRM until the endpoint of the experiment. Anti-tumour activity was evaluated and tumour volume was estimated by caliper measurements, using the formula: Length×Width×Height×/2. Tumour weight was determined from tumour tissue surgically excised from the animal on the last day of the experiment. The percentage of inhibition (%)=(mean tumour weight of control animals−mean tumour weight of drug-treated group)/mean tumour weight of controls×100. A p value of ≦0.05 was considered to be statistically significant.\nMice bearing human melanoma C8161 xenograft were treated intraperitoneally with BD-BRM or PBS for 4 weeks. Briefly, human melanoma C8161 cells were subcutaneously injected into the right flank of CD-1 nude mice as described above. The mice were then administered i.p. with 0.2 ml of PBS or BD-BRM daily when tumours reached a volume of 50-100 mm^3.\nRecombinant human IL-17E was obtained from PeproTech, Inc., and is present in the preparation as a 33.8 kDA disulphide linked homodimer of two 145 amino acid polypeptide chains. The predominant form of IL-17E in this preparation is the form starting at Tyr 33 of the human sequence provided by GenBank Accession No. AAG40848. Human melanoma C8161 cells (10^6 cells in 100 μl PBS) were subcutaneously implanted into the right flank of CD-1 athymic nude mice. When tumours reached a volume of 50-100 mm^3, mice were randomly separated into two groups of 10 animals and treated as follows:\nGroup I: 100 μl of PBS intraperitoneally (i.p.) per mouse every other day until the endpoint of the experiment; and\nGroup II: 0.04 mg/kg of recombinant human IL-17E intraperitoneally (i.p.) every other day until the endpoint of the experiment.\nThe size of the tumours was measured by caliper measurements throughout the experiment. Tumour volume was determined using the formula (Length×Width×Height/2). T-tests were performed to assess the statistical significance of differences in tumour sizes. A p value of ≦0.05 was considered to be statistically significant.\nThe effect of human IL-17E dosage on antitumour efficacy was examined using a murine xenograft model of human melanoma tumour growth. Human melanoma C8161 cells (10^6 cells in 100 μl PBS) were subcutaneously implanted into the right flank of CD-1 athymic nude mice. When tumours reached a volume of 50-100 mm^3, mice were randomly separated into four groups of 10 animals and treated as follows:\nGroup I: 100 μl of PBS subcutaneously (s.c.) per mouse every other day until the endpoint of the experiment; […]"}}, "data": [{"molecule": "human IL-17E: Recombinant human IL-17E from PeproTech; two 145 amino acid chains, predominant form starting at Tyr 33 of GenBank AAG40848 (protein, listed as Homo sapiens) YSHWPSCCPSKGQDTSEELLRWSTVPVPPLEPARPNRHPESCRASEDGPLNSRAISPWRYELDRDLNRLPQDLYHARCLCPHCVSLQTGSHMDPRGNSELLYHNQTVFYRRPCHGEKGTHKGYCLERRLYRVSLACVCVRPRVMG", "values": [{"measurement": "levels of phosphorylated IkappaB alpha (p-IkB-α)", "setting": "[1]", "result": "increased"}, {"measurement": "tumour growth (tumour volume) as compared to PBS", "setting": "[2]; 0.04 mg/kg recombinant human IL-17E i.p. every other day", "result": "significantly inhibit tumour growth"}, {"measurement": "antitumour effect with increasing doses", "setting": "[2]; 0.0018, 0.016, 0.144 mg/kg s.c. every other day", "result": "dose-response effect"}]}, {"molecule": "murine IL-17E: Murine IL-17E from R&D Systems; predominant form starting at Val 17 of GenBank NP 542767 (protein) VSLRIQEGCSHLPSCCPSKEQEPPEEWLKWSSASVSPPEPLSHTHHAESCRASKDGPLNSRAISPWSYELDRDLNRVPQDLYHARCLCPHCVSLQTGSHMDPLGNSVPLYHNQTVFYRRPCHGEEGTHRRYCLERRLYRVSLACVCVRPRVMA", "values": [{"measurement": "levels of phosphorylated IkappaB alpha (p-IkB-α)", "setting": "[1]", "result": "increased"}, {"measurement": "antitumour efficacy, comparison of i.p. and i.v. routes of administration", "setting": "[2]; 0.04 mg/kg murine IL-17E every other day", "result": "approximately equivalent antitumour efficacy"}, {"measurement": "tumour growth (tumour weight) vs PBS", "setting": "[2]; 0.04 mg/kg murine IL-17E intraperitoneally every other day", "result": "inhibit tumour growth"}, {"measurement": "tumour growth (tumour weight) vs PBS", "setting": "[2]; 0.04 mg/kg murine IL-17E intravenously every other day", "result": "inhibit tumour growth"}]}]}
